Test results from patent EP4818204A1 (Nanjing Leads Biolabs Co., Ltd., dated 2026).

Tests used:
human Activin B protein [1] = target: T1, human Activin B protein (human, UniProt P09529 293-407); assay: ELISA, coated protein, antibody at 4 µg/mL
T1 construct: Bought; Activin B is by nature a dimer of inhibin beta B chains
T1 sequence (looked up): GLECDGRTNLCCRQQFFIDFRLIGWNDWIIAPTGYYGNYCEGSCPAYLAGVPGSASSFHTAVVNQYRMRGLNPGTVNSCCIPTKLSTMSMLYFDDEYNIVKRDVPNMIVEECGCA

human BMP2 protein [2] = target: T2, human BMP2 protein (human, UniProt P12643 283-396); assay: ELISA, coated protein, antibody at 4 µg/mL
T2 construct: Bought

human TGFβ1 protein [3] = target: T3, human TGFβ1 protein (human, UniProt P01137 279-390); assay: ELISA, coated protein, antibody at 4 µg/mL
T3 construct: Bought

human GDF2 protein [4] = target: T4, human GDF2 protein (human, UniProt Q9UK05 320-429); assay: ELISA, coated protein, antibody at 4 µg/mL
T4 construct: Bought
T4 sequence (looked up): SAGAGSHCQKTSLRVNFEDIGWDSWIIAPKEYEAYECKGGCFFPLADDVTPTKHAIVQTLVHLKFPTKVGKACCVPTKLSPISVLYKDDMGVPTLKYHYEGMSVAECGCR

human GDF11 protein [5] = target: T5, human GDF11 protein (human, UniProt O95390 299-407); assay: ELISA, coated protein, antibody at 4 µg/mL
T5 construct: Bought
T5 sequence (looked up): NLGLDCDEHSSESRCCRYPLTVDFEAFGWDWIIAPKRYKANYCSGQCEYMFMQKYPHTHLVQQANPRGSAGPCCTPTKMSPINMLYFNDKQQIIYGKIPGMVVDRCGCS

human GDF1 protein [6] = target: T6, human GDF1 protein (human, UniProt P27539 254-372, limits assumed); assay: ELISA, coated protein, antibody at 4 µg/mL
T6 construct: Bought
T6 sequence (looked up): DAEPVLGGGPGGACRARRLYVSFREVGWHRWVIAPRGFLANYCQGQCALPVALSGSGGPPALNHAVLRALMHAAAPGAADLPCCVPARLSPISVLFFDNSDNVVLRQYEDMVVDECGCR

human GFRα1 protein [7] = target: T7, human GFRα1 protein (human, UniProt P56159 25-429, limits assumed); assay: ELISA, coated protein, antibody at 4 µg/mL
T7 construct: Bought
T7 sequence (looked up): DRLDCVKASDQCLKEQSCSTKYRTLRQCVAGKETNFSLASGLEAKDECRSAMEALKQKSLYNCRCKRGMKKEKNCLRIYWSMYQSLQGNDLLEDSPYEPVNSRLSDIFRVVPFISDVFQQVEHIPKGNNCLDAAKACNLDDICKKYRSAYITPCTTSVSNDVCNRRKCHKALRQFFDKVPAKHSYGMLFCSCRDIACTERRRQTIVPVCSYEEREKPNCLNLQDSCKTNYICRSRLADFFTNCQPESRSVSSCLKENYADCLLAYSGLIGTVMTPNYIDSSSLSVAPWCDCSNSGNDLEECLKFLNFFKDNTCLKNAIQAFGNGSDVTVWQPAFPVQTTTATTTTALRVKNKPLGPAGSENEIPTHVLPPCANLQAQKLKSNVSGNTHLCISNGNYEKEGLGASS

human GDF3 protein [8] = target: T8, human GDF3 protein (human, UniProt Q9NR23 251-364, limits assumed); assay: ELISA, coated protein, antibody at 4 µg/mL
T8 construct: Bought
T8 sequence (looked up): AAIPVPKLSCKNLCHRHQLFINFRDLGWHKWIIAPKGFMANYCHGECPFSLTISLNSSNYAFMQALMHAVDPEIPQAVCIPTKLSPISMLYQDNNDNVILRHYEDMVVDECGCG

human Activin A protein [9] = target: T9, human Activin A protein (human, UniProt P08476 311-426); assay: ELISA, coated protein, antibody at 4 µg/mL
T9 construct: Bought; Activin A is by nature a dimer of inhibin beta A chains
T9 sequence (looked up): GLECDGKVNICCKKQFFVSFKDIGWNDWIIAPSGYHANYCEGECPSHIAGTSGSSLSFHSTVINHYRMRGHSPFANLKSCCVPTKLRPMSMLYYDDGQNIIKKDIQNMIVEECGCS

human BMP4 protein [10] = target: T10, human BMP4 protein (human, UniProt P12644 293-408); assay: ELISA, coated protein, antibody at 4 µg/mL
T10 construct: Bought
T10 sequence (looked up): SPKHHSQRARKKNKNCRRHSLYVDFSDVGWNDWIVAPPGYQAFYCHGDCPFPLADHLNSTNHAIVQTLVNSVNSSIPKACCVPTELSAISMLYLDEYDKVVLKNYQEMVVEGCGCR

human Activin B protein [11] = target: T1, human Activin B protein; assay: ELISA, coated protein
human BMP2 protein [12] = target: T2, human BMP2 protein; assay: ELISA, coated protein
human TGFβ1 protein [13] = target: T3, human TGFβ1 protein; assay: ELISA, coated protein
human GDF2 protein [14] = target: T4, human GDF2 protein; assay: ELISA, coated protein
human GDF11 protein [15] = target: T5, human GDF11 protein; assay: ELISA, coated protein
human GDF1 protein [16] = target: T6, human GDF1 protein; assay: ELISA, coated protein
human GFRα1 protein [17] = target: T7, human GFRα1 protein; assay: ELISA, coated protein
human GDF3 protein [18] = target: T8, human GDF3 protein; assay: ELISA, coated protein
human Activin A protein [19] = target: T9, human Activin A protein; assay: ELISA, coated protein
human BMP4 protein [20] = target: T10, human BMP4 protein; assay: ELISA, coated protein
[21] = target: human AMH protein (human) (UniProt P03971); assay: ELISA, coated protein, antibody at 4 µg/mL
[22] = target: human GDF8 protein (human) (UniProt O14793); assay: ELISA, coated protein, antibody at 4 µg/mL
human GDNF protein = target: T11, human GDNF protein (human, UniProt P39905 78-211); assay: ELISA, coated protein, antibody at 4 µg/mL
T11 construct: Bought
T11 sequence (looked up): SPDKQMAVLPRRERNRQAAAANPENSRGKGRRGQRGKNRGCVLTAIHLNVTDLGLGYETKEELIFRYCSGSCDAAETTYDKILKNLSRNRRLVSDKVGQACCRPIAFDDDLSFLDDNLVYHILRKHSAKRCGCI

Human GDF15 protein = target: T12, Human GDF15 protein (human, UniProt Q99988 197-308); assay: ELISA, coated protein, antibody at 4 µg/mL
T12 construct: Natural GDF15 is said to be a disulfide-linked homodimer; also called Human-GDF15-his
T12 sequence: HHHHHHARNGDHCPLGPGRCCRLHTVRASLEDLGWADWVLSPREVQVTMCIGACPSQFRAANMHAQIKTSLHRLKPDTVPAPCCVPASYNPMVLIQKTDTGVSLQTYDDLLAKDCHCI

human FcRn protein = target: T13, human FcRn protein (human, UniProt P55899 24-297); assay: BLI (Octet RED96e), FcRn on SA sensor, antibody as analyte, binding and dissociation at pH 6.0, 1:1 model
T13 construct: Bought, loaded on a streptavidin (SA) sensor; FcRn is by nature a heterodimer with beta-2-microglobulin
T13 sequence (P55899 24-297 limits assumed, form in doubt): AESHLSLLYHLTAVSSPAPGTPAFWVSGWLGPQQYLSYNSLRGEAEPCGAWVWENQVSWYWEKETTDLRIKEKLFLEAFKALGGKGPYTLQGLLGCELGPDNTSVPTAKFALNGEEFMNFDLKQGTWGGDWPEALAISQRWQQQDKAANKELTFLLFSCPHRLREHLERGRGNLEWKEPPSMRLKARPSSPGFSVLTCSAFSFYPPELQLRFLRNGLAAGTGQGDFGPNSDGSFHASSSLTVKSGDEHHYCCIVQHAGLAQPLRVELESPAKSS

T3 sequence (P01137 279-390 limits assumed): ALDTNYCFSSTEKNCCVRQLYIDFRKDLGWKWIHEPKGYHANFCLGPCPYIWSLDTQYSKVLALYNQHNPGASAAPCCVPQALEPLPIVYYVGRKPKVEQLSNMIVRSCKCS
T2 sequence (P12643 283-396 limits assumed): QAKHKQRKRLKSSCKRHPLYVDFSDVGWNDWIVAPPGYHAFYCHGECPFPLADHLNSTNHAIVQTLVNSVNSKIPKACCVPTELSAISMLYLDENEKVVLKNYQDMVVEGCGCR

B1: hu19C4C7-YTE (antibody, human IgG1, kappa)
heavy: QVQLVQSGAEVKKPGSSVKVSCKASGYSFTGYIMNWVRQAPGQSLEWMGDIDPYYGGPNYNQKFQGRVTITVDKSTSTAYMELSSLRSEDTAVYYCSRRDYNYGSFAYWGQGTLVTVSSASTKGPSVFPLAPSSKSTSGGTAALGCLVKDYFPEPVTVSWNSGALTSGVHTFPAVLQSSGLYSLSSVVTVPSSSLGTQTYICNVNHKPSNTKVDKKVEPKSCDKTHTCPPCPAPEAAGAPSVFLFPPKPKDTLYITREPEVTCVVVDVSHEDPEVKFNWYVDGVEVHNAKTKPREEQYNSTYRVVSVLTVLHQDWLNGKEYKCKVSNKALPAPIEKTISKAKGQPREPQVYTLPPSREEMTKNQVSLTCLVKGFYPSDIAVEWESNGQPENNYKTTPPVLDSDGSFFLYSKLTVDKSRWQQGNVFSCSVMHEALHNHYTQKSLSLSPGK
light: QIVLTQSPATLSLSPGERATLSCRASSSVNYMHWYQQKPGQAPRPLIYATSNLATGIPARFSGSGSGTDYTLTISSLEPEDFAVYYCQQWSDNPPTFGQGTKLEIKRTVAAPSVFIFPPSDEQLKSGTASVVCLLNNFYPREAKVQWKVDNALQSGNSQESVTEQDSKDSTYSLSSTLTLSKADYEKHKVYACEVTHQGLSSPVTKSFNRGEC
notes: Hu19C4C7 with human IgG1 constant region carrying L234A, L235A, G237A, M252Y, S254T, T256E (EU numbering); also called hu19C4C7-YTE-IgG1-mut
With B1 the OD value (human Activin B protein [1]) was 0.114 OD 450 nm-620 nm, the OD value (human BMP2 protein [2]) was 0.0973 OD 450 nm-620 nm and the OD value (human TGFβ1 protein [3]) was 0.114 OD 450 nm-620 nm. It also gave an OD value (human GDF2 protein [4]) of 0.0643 OD 450 nm-620 nm, an OD value (human GDF11 protein [5]) of 0.0709 OD 450 nm-620 nm and an OD value (human GDF1 protein [6]) of 0.144 OD 450 nm-620 nm. It also gave an OD value (human GFRα1 protein [7]) of 0.132 OD 450 nm-620 nm, an OD value (human GDF3 protein [8]) of 0.0907 OD 450 nm-620 nm and an OD value (human Activin A protein [9]) of 0.0582 OD 450 nm-620 nm. The OD value (human BMP4 protein [10]) was 0.0595 OD 450 nm-620 nm, the binding result (human Activin B protein [11]) was “no binding (tested: 4 µg/mL)” and the binding result (human BMP2 protein [12]) was “no binding (tested: 4 µg/mL)”. B1: no binding (tested: 4 µg/mL) (human TGFβ1 protein [13]); no binding (tested: 4 µg/mL) (human GDF2 protein [14]); no binding (tested: 4 µg/mL) (human GDF11 protein [15]). B1: no binding (tested: 4 µg/mL) (human GDF1 protein [16]); no binding (tested: 4 µg/mL) (human GFRα1 protein [17]); no binding (tested: 4 µg/mL) (human GDF3 protein [18]). The binding result (human Activin A protein [19]) was “no binding (tested: 4 µg/mL)”, the binding result (human BMP4 protein [20]) was “no binding (tested: 4 µg/mL)” and the OD value (OD 450 nm-620 nm) [21] was 0.0409. The OD value (OD 450 nm-620 nm) [22] was 0.0508, the OD value (OD 450 nm-620 nm) (human GDNF protein) was 0.296 and the OD value (OD 450 nm-620 nm) (Human GDF15 protein) was 2.39. The Kd (human FcRn protein) was 2.89 nM, the koff (human FcRn protein) was 0.00257 s⁻¹ and the kon (human FcRn protein) was 889000 M⁻¹ s⁻¹.
